Source: patent US10738094B2, “Peptides and combination of peptides for use in immunotherapy against ovarian cancer and other cancers” (immatics biotechnologies GmbH, priority 2015, dated 2020)

molecular target: HLA-A*02:01 (Homo sapiens, UniProt P04439, D140Y/D185E/D98H/E176V/E277Q/G131W/G231S/I119V/I121R/I166T/I218V/L300P/L318F/N151K/N90K/P208A/P217A/Q86G/Q94H/R138H/R169H/T345S); assay: MHC binding assay (UV-ligand exchange, beta2m ELISA); conditions: binding to HLA-A*02:01 ranged by peptide exchange yield (UV-ligand exchange, β2m ELISA)
Summary of the method: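 UV-cleavable ligand in peptide-MHC complexes was exchanged for test peptide. Exchange yield came from an ELISA on streptavidin-captured complexes diluted 100 fold, detecting β2m with HRP anti-β2m (2 ug/ml, 1 h, 37° C.), TMB, A450.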

Row | Substance | Peptide exchange
1 | 440 (ALADGVTMQV; listed as Homo sapiens) [compound 440] | “++” (≥20% = ++)
2 | 276 (ALFTFSPLTV; listed as Homo sapiens) [compound 276] | “+++” (≥50 = +++)
3 | 464 (ALNDCIYSV; listed as Homo sapiens) [compound 464] | “+++” (≥50 = +++)
4 | 32 (KLDDLTQDLTV; listed as Homo sapiens) [compound 32] | “++” (≥20% = ++)
5 | 553 (SLLNQDLHWSL; listed as Homo sapiens) [compound 553] | “++++” (≥75% = ++++)
6 | 192 (KMLDGASFTL; listed as Homo sapiens) [compound 192] | “+++” (≥50 = +++)
7 | 481 (GLIEDYEALL; listed as Homo sapiens) [compound 481] | “+++” (≥50 = +++)
8 | 78 (SLFSSLEPQIQPV; listed as Homo sapiens) [compound 78] | “+++” (≥50 = +++)
9 | 70 (GLLDYPVGV; listed as Homo sapiens) [compound 70] | “+++” (≥50 = +++)
10 | 313 (VLFDDELLMV; listed as Homo sapiens) [compound 313] | “+++” (≥50 = +++)
11 | 153 (FLIANVLYL; listed as Homo sapiens) [compound 153] | “+” (≥10% = +)
12 | 183 (FGLDLVTEL; listed as Homo sapiens) [compound 183] | “+++” (≥50 = +++)
13 | 230 (ILVDWLVEV; listed as Homo sapiens) [compound 230] | “+” (≥10% = +)
14 | 221 (ALYEEGLLL; listed as Homo sapiens) [compound 221] | “++” (≥20% = ++)
15 | 409 (LLDAMNYHL; listed as Homo sapiens) [compound 409] | “++” (≥20% = ++)
16 | 434 (KVSNSGITRV; listed as Homo sapiens) [compound 434] | “++” (≥20% = ++)

Row | Substance | Peptide exchange
17 | 261 (YVLEFLEEI; listed as Homo sapiens) [compound 261] | “++” (≥20% = ++)
18 | 20 (RMIEYFIDV; listed as Homo sapiens) [compound 20] | “+++” (≥50 = +++)
19 | 111 (YVWGFYPAEV; listed as Homo sapiens) [compound 111] | “+++” (≥50 = +++)
20 | 512 (SLSEIVPCL; listed as Homo sapiens) [compound 512] | “+++” (≥50 = +++)
21 | 479 (SLFGNSGILENV; listed as Homo sapiens) [compound 479] | “+++” (≥50 = +++)
22 | 18 (YLVAKLVEV; listed as Homo sapiens) [compound 18] | “++” (≥20% = ++)
23 | 544 (LLWDVPAPSL; listed as Homo sapiens) [compound 544] | “+++” (≥50 = +++)
24 | 542 (RVWDISTVSSV; listed as Homo sapiens) [compound 542] | “+++” (≥50 = +++)
25 | 543 (GLLPTPITQQASL; listed as Homo sapiens) [compound 543] | “+++” (≥50 = +++)
26 | 123 (NLWDLTDASVV; listed as Homo sapiens) [compound 123] | “+++” (≥50 = +++)
27 | 179 (KVLNELYTV; listed as Homo sapiens) [compound 179] | “+++” (≥50 = +++)
28 | 604 (SILDRDDIFV; listed as Homo sapiens) [compound 604] | “+++” (≥50 = +++)
29 | 127 (KIGDEPPKV; listed as Homo sapiens) [compound 127] | “++” (≥20% = ++)
30 | 7 (SLVGLLLYL; listed as Homo sapiens) [compound 7] | “++++” (≥75% = ++++)
31 | 237 (ALLEASGTLLL; listed as Homo sapiens) [compound 237] | “++++” (≥75% = ++++)
32 | 108 (ALFPGVALLLA; listed as Homo sapiens) [compound 108] | “++++” (≥75% = ++++)
